The target of this test is S2 fragment of the S protein (SARS-CoV-2). Kind of test: SEC. (In general: SEC sorts molecules by how far they enter the pores of the column.)

As usually defined, the stoichiometry N is a count of units in the complex or per binding partner. The substance “S2 fragment of the S protein (domain or fragment)” yielded a stoichiometry N of 3.

(Values after PMC8139424.)
